# From the nanobody polyreactivity screen of Harvey et al. (2022)
# Assay: yeast display, Sf9 membrane polyspecificity reagent, FACS + sequencing; frameworks hold sequencing errors
# Procedure, shortened: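 In a synthetic yeast display library (Saccharomyces cerevisiae BJ5465), nanobody expression was induced with galactose for 36–48 hours. FACS gates were set low and high (top ~1%) using anti-HA fluorescence for expression and streptavidin fluorescence for binding of the Sf9 membrane reagent. Each polyreactivity label is drawn from the gate of origin.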
row,Sequence,polyreactivity (PSR sort gate)
1,QVQLVESGGGLVQAGGSLRLSCAASGIIFGRYAMGWYRQSPGKERELVAAISSRGGSTYYADSVKGRFTISRDNAKNTVYLQMNSLKPEDTAVYYCAATWGYLRGSTNYYYWGQGTQVTVSS,high polyreactivity
2,QVQLVESGGGLVQAGGSLRLSCAASGIIFGSNAMGWYRQAPGKERELVAAISYSGASTYYADSVKGRFTISRDNAKNTVYLQMNSLKPEDTAVYYCATYSRWDYGYWGQGTQVTVSS,high polyreactivity
3,QVQLVESGGGLVQAGGSLRLSCAASGIIFGSNTMGWYRQAPGKERELVAAITSSDGSTHYADSVKGRFTISRDNAKNTVYLQMKSLKPEDTAVYYCAARKVTYGHSYGYDYWGQGTQVTLSS,low polyreactivity
4,QVQLVESGGGLVQAGGSLRLSCAASGIIFGSYAIGWYRQAPGKERELVAGISRRGDSTYYADSVKGRFTISRDNAKNTVYLQMNSLKPEDTAVYYCAARWFRRSTYLYYYWGQGTQVTVSS,high polyreactivity
5,QVQLVESGGGLVQAGGSLRLSCAASGIIFGSYAMGWSRQAPGKERELVAAISYSGSTFYADSVKGRFTISRDNAKNTVYLQMNSLKPEDTAVYYCNADRYAKWYRKYRPNDYWGQGTQVTVSS,high polyreactivity
6,QVQLVESGGGLVQAGGSLRLSCAASGIIFGTNAMGWSRQAPGKERELVAAITWSGGTYYADSVKGRFTISRDNAKNTVYLQMNSLKPEDTAVYYCAADGSGYYDWYYYWGQGTQVTVSS,low polyreactivity
7,QVQLVESGGGLVQAGGSLRLSCAASGIIFGTNAMGWYRQAPGKERELVAAIRVTGGSTYYADSVKGRFTISRDNAKNTVYLQMNSLKPEDTAVYYCARDSWFVVDMDYWGQGTQVTVSS,low polyreactivity
8,QVQLVESGGGLVQAGGSLRLSCAASGIIFGTYAMGWYRQAPGKERELVAAINWSGGSTYYADSVKGRFTISRDNAKNTVYLQMNSLKPEDTAVYYCAADGNEYDYWGQGTQVTVSS,low polyreactivity
9,QVQLVESGGGLVQAGGSLRLSCAASGIIFGVYAMGWYRQAPGKERELVAAIDGNGSSTYYADSVKGRFISSRDNAKTTVYLQMNSLKPEDTAVYYCAADLVWVSTSYYYWGQGTQVTVSS,low polyreactivity
10,QVQLVESGGGLVQAGGSLRLSCAASGIIFGVYAMGWYRQAPGKERELVADISSGDSTNYADSVKGRFTISRANAKNTVYLQMNSLKPEDTAVYYCAAEFGRMYWRYGYWGQGTQVTVSS,low polyreactivity
11,QVQLVESGGGLVQAGGSLRLSCAASGIIFGYNVMGWYRQAPGKERELVAAIRYSGGSKYYADSVKGRFTISRDNAKNTVYLQMNSLKPEDTAVYYCAKAYRAAPRESYDYWGQGTQVTVSS,high polyreactivity
12,QVQLVESGGGLVQAGGSLRLSCAASGIIFGYYAMAWYRQAPGTERELVAAITSGASTDYADSVKGRFTISRDNAKNNVYLQMNSLKPEDTAVYYCNADTSASTYTFPFDYWGQGTQVTVSS,low polyreactivity
13,QVQLVESGGGLVQAGGSLRLSCAASGIIFGYYAMGRYRQAPGKERELVAAITWSGGSTYYADSVKGRFTISRDNAKNTVYLQMNSLKPEDTAVYYCAAGDPTLLNESFDYWGQGTQVTVSS,low polyreactivity
14,QVQLVESGGGLVQAGGSLRLSCAASGIIFGYYAMGWKRQAPGKERELVAAIDWTGGNTYYADSVKGRFTSSRDNAKNTVYLQMNSLKPEDTAVYYWAADSNSQEDYWGQGTQVTVSS,low polyreactivity
15,QVQLVESGGGLVQAGGSLRLSCAASGIIFGYYAMGWYRQAPGKERELVAAISRSGGRTYYADSVKGRFTISRDNAKNTVYLQMNSLKPEDTAVYYCATVTNSKRGFDYWGQGTQVTVLS,high polyreactivity
16,QVQLVESGGGLVQAGGSLRLSCAASGIIFGYYSMGWYRQAPGKERDLVAAITWSGGSTYYADSVKGRFTISRDYAKNTVYLQMNSLKPEDTAVYYCNALGWYGDYDYWGQGTQVTVSS,low polyreactivity

row,Sequence,polyreactivity (PSR sort gate)
1,QVQLVESGGGLVQAGGSLRLSCAASGIIFHFNDMGWTTQAPGKERELVAAISRRGSTYYADSVTGRFTISRDNAKNSVYLQMNSLKPEDTAVYYCAKYRGRVKTYNGGYDYWGQGTQVSVSS,low polyreactivity
2,QVQLVESGGGLVQAGGSLRLSCAASGIIFHFNDMGWYRLAPGKERELVAAITSGGSTNYADSVKGRFTISRDNAKKTVYLQMNSLKPEDTADYYCAARRGLRLFAYRHGYWGQGTQVTVSS,low polyreactivity
3,QVQLVESGGGLVQAGGSLRLSCAASGIIFHFNDMGWYRQAPGKERELVAAIDSTGSTNYADSVKGRFTISRDNAKNTVNLQMNSLKPEDTAVYYCAADWTLDPSYGYYADDYWGQGTQVTVSS,low polyreactivity
4,QVQLVESGGGLVQAGGSLRLSCAASGIIFIIYTMGWYRQSPGKERELVAAISWSGGSTYYADSVKGRFTISRDNAKNTVYLQMNSLKPEDTAVYYCAADVANWYGGGNSDYDHEYWGQGPQVTVSS,low polyreactivity
5,QVQLVESGGGLVQAGGSLRLSCAASGIIFISYDMGWSRQAPGKERELVARINWDGGSTYYADSVKGRFTISRDNAKNTVYLQMNSLKPEDTAVYYCAAGFVGTNYPVLGFSYEYWGQGTQVTVSS,low polyreactivity
6,QVQLVESGGGLVQAGGSLRLSCAASGIIFITYAMGWYRQAPGKERELVAAITNSGGGTYYADSVKGRFTISRDNAKNTVYLQMNILKPEATAVYYCAARKTAYGYRYDYWGQGTQVTVSS,high polyreactivity
7,QVQLVESGGGLVQAGGSLRLSCAASGIIFIYNAMGWYRQAPGKERELVGAIRRSGSPSYADSVKGRFTISRDNAKNTVYLQMNSLKPEDTAVYYCAADTSTWFGAYYLRDPYDYWGQGTQVTVSS,low polyreactivity
8,QVQLVESGGGLVQAGGSLRLSCAASGIIFIYYAMGWYRQAPGKERELVAAISQSGVNTYYADSVKGRFTISRDNAKNTVYLQMNSLKPEDTAVYYCAADRYGHFGYWGQGTQVTVSS,high polyreactivity
9,QVQLVESGGGLVQAGGSLRLSCAASGIIFKGYAMGWYRQAPGKERELVAGITRNGGGTYYADSVKGRFTISRDNAKNTVYLQMNSLKPEDTAVYYCAARWDYSYRYRLYYWGQGTQVTVSS,high polyreactivity
10,QVQLVESGGGLVQAGGSLRLSCAASGIIFKIYAMGWYRQAPGKERELVAAITRSGTRTYYADSVKGRFTISRDNAKNTVYLQMNSLKPEDTAVYYCNAYTTLAYDLDYWGQGTQVTVSS,high polyreactivity
11,QVQLVESGGGLVQAGGSLRLSCAASGIIFKPYAMGWYRPAPGKERQLVAAITVNGGTTYYADSVKGRFTISRDNAKKTVNVQMNSLKPEDPAFYYCNRGRPGGPSWYHYDYWGQGTEVTVSS,high polyreactivity
12,QVQLVESGGGLVQAGGSLRLSCAASGIIFKSYAKGWYRQAPGKARELVAAMSWIGGSTYYADSVKGRFTISRDNAKHTVYFQMTSLKPEATAVYYCNARQYRRSRMDYWGQGTQVTVSS,high polyreactivity
13,QVQLVESGGGLVQAGGSLRLSCAASGIIFKSYAMGWYRQAPGKERELVAAISSGGSTYYVDSVKGRFTISRDNAKNTVYLQMNSLKPEDTAVYYCNARYKRYSYDYWGHGTQVTVSS,high polyreactivity
14,QVQLVESGGGLVQAGGSLRLSCAASGIIFKSYAMGWYRQAPGKERELVAAITKRGGSTYYADSVKGRFTISRDNAKNTVYLQMNSLKPEDSAVYYCAAFAVPYDYWGQGTQVTVSS,high polyreactivity
15,QVQLVESGGGLVQAGGSLRLSCAASGIIFKVNAMGWYRQAPGKERELVAAISRRGGITYYADSVKGRFTISRDNAKNTVYLQMNSLKPEDSAVYYCAAAYSDYRFSTRYPYNYWGQGTQVTVSS,high polyreactivity
16,QVQLVESGGGLVQAGGSLRLSCAASGIIFKYYAMGWYRQAPGKERELVAAISRSSGSTYYADSVKGRFTISRDNAKNTVYLQMNSLKPEDTAVYYCAASGWPQKYDYWGQGTQVTVSS,high polyreactivity
